Results published in the supplement of paper PMC7877785.
± gives the uncertainty stated by the source.

Test: self-splicing fitness, log relative to wild type (ln ratio); higher = more splicing; Tetrahymena group I intron in knt gene, E. coli kanamycin selection, DiMSum; sequences stand for … in CUCUCU…GGAGGGAAAAGUUAUCAGGCAUGCACCUGGUAGCUAGUCUUUAAACCAAUAGAUUGCAUCGGUUUAAAAGGCAAGACCGUCAAAUUGCGGGAAAGGGGUCAACAGCCGUUCAGUACCAAGUCUCAGGGGAAACUUUGAGAUGGCCUUGCAAAGGGUAUGGUAAUAAGCUGACGGACAUGGUCCUAACCACGCAGCCAAGUCCUAAGUCAACAGAUCUUCUGUUGAUAUGGAUGCAGUUCACAGACUAAAUGUCGGUCGGGGAAGAUGUAUUCUUCUCAUAAGAUAUAGUCGGACCUCUCCUUAAUGGGAGCUAGCGGAUGAAGUGAUGCAACACUGGAGCCGCUGGGAACUAAUUUGUAUGCGAAAGUAUAUUGAUUAGUUUUGGAGUACUCGUGGUCG
Procedure, shortened: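 Pooled colonies went to amplicon sequencing on an Illumina HiSeq 2500 after six replicate transformations. The plates were LB agar with 100 μg/mL carbenicillin, 50 μM IPTG and 0.2% rhamnose, with or without 25 μg/mL kanamycin, incubated overnight at 37°C or 30°C. The E. coli BL21(DE3) library had all eight P1ex-region intron nucleotides randomised, the intron placed in the knt kanamycin-resistance gene on pET-22b(+). DiMSum fitness is the error-weighted combination of replicate fold changes, kanamycin against none, normalised to wild type.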

Sequence | self-splicing fitness (ln) (30 °C) | self-splicing fitness (ln) (37 °C)
GAGUAGCAAUAUUACGGUUA | -0.885 ± 0.14 | -0.497 ± 0.099
GAGUAGCAAUAUUACGGUUU | -0.669 ± 0.092 | -0.275 ± 0.091
GAGUAGCAAUAUUACGUACU | -2.67 ± 0.15 | -1.67 ± 0.16
GAGUAGCAAUAUUACGUAUG | -2.85 ± 0.13 | -2.51 ± 0.19
GAGUAGCAAUAUUACGUCGU | -3.35 ± 0.29 | -0.572 ± 0.2
GAGUAGCAAUAUUACGUCUA | -0.203 ± 0.099 | -0.00603 ± 0.14
GAGUAGCAAUAUUACGUGCU | -3.42 ± 0.19 | -2.31 ± 0.2
GAGUAGCAAUAUUACGUUGU | -2.19 ± 0.17 | -1.41 ± 0.16
GAGUAGCAAUAUUACGUUUG | -3.89 ± 0.16 | -3.88 ± 0.24
GAUAAGCAAUAUUACGACCU | -0.864 ± 0.086 | 0.36 ± 0.1
GAUAAGCAAUAUUACGAUAC | -1.52 ± 0.18 | -1.63 ± 0.27
GAUAAGCAAUAUUACGAUUA | -0.905 ± 0.12 | 0.0831 ± 0.12
GAUAAGCAAUAUUACGCAUA | -0.919 ± 0.13 | -0.783 ± 0.18
GAUAAGCAAUAUUACGCCCU | -0.569 ± 0.13 | 0.292 ± 0.15
GAUAAGCAAUAUUACGCCUC | – | -2.35 ± 0.42
GAUAAGCAAUAUUACGCUAU | -2.91 ± 0.26 | -1.01 ± 0.29
GAUAAGCAAUAUUACGCUCC | -1.82 ± 0.34 | –
GAUAAGCAAUAUUACGCUGA | – | -1.31 ± 0.22
GAUAAGCAAUAUUACGGCGA | -0.337 ± 0.12 | 0.114 ± 0.13
GAUAAGCAAUAUUACGGCGC | 0.0448 ± 0.13 | -0.881 ± 0.13
GAUAAGCAAUAUUACGGGCA | -1.65 ± 0.12 | -0.177 ± 0.13
GAUAAGCAAUAUUACGUGAC | -2.55 ± 0.32 | -0.818 ± 0.3
GAUAAGCAAUAUUACGUGAG | -2.14 ± 0.096 | -0.113 ± 0.099
GAUAAGCAAUAUUACGUUAA | -3.91 ± 0.43 | -1.52 ± 0.17
GAUAAGCAAUAUUACGUUCG | -1.42 ± 0.098 | -1.05 ± 0.14
GAUAAGCAAUAUUACGUUGU | -2.12 ± 0.089 | -2.6 ± 0.11
GAUAAGCAAUAUUACGUUUU | -2.39 ± 0.098 | -1.48 ± 0.1

Sequence | self-splicing fitness (ln) (30 °C) | self-splicing fitness (ln) (37 °C)
GAUCAGCAAUAUUACGAACG | -0.118 ± 0.16 | 0.507 ± 0.17
GAUCAGCAAUAUUACGACAG | -3.24 ± 0.23 | -1.49 ± 0.28
GAUCAGCAAUAUUACGACUC | -0.0915 ± 0.14 | -0.146 ± 0.15
GAUCAGCAAUAUUACGAGAA | -1.89 ± 0.17 | -1.16 ± 0.14
GAUCAGCAAUAUUACGAGCC | -0.966 ± 0.074 | -1.1 ± 0.093
GAUCAGCAAUAUUACGAGCU | -1.42 ± 0.15 | -0.233 ± 0.15
GAUCAGCAAUAUUACGAGGC | – | -1.92 ± 0.23
GAUCAGCAAUAUUACGAGGU | -2.98 ± 0.24 | -2.84 ± 0.22
GAUCAGCAAUAUUACGAGUC | -3.31 ± 0.29 | -0.73 ± 0.16
GAUCAGCAAUAUUACGAUCU | -4.13 ± 0.42 | -1.8 ± 0.26
GAUCAGCAAUAUUACGCAAU | -1.56 ± 0.1 | 0.129 ± 0.11
GAUCAGCAAUAUUACGCAUG | -0.141 ± 0.095 | 0.865 ± 0.14
GAUCAGCAAUAUUACGCCCU | -0.299 ± 0.069 | 0.418 ± 0.084
GAUCAGCAAUAUUACGCCUC | -1.36 ± 0.18 | -0.876 ± 0.23
GAUCAGCAAUAUUACGCUGA | -3.83 ± 0.37 | -1.33 ± 0.21
GAUCAGCAAUAUUACGCUUG | -1.02 ± 0.095 | 0.188 ± 0.12
GAUCAGCAAUAUUACGCUUU | -1.02 ± 0.08 | -0.877 ± 0.11
GAUCAGCAAUAUUACGGAUU | -3.32 ± 0.24 | -2.52 ± 0.24
GAUCAGCAAUAUUACGGCGG | -2.43 ± 0.13 | -2.06 ± 0.17
GAUCAGCAAUAUUACGGGCA | -0.237 ± 0.098 | -0.574 ± 0.11
GAUCAGCAAUAUUACGGUCC | -3.7 ± 0.33 | –
GAUCAGCAAUAUUACGGUGA | -0.622 ± 0.069 | -0.422 ± 0.075
GAUCAGCAAUAUUACGGUUA | -0.25 ± 0.066 | 0.171 ± 0.067
GAUCAGCAAUAUUACGUCAA | -1.01 ± 0.1 | -0.615 ± 0.14
GAUCAGCAAUAUUACGUCAG | -4.35 ± 0.43 | -2.43 ± 0.28
GAUCAGCAAUAUUACGUGCC | -1.16 ± 0.13 | -0.652 ± 0.24
GAUGAGCAAUAUUACGACGA | -1.5 ± 0.13 | -1.3 ± 0.15

Sequence | self-splicing fitness (ln) (30 °C) | self-splicing fitness (ln) (37 °C)
GAUGAGCAAUAUUACGAGCG | -2.62 ± 0.44 | –
GAUGAGCAAUAUUACGAUGU | -2.63 ± 0.25 | -2.15 ± 0.35
GAUGAGCAAUAUUACGAUUU | -1.07 ± 0.14 | -2.1 ± 0.18
GAUGAGCAAUAUUACGCUCG | -3.02 ± 0.3 | -2.75 ± 0.38
GAUGAGCAAUAUUACGCUUC | -4.04 ± 0.43 | –
GAUGAGCAAUAUUACGGAAU | -3.1 ± 0.23 | -2.66 ± 0.41
GAUGAGCAAUAUUACGGACA | -2.22 ± 0.45 | -3.08 ± 0.47
GAUGAGCAAUAUUACGGAUA | -3.94 ± 0.42 | -2.52 ± 0.26
GAUGAGCAAUAUUACGGCCA | -2.11 ± 0.44 | -0.871 ± 0.24
GAUGAGCAAUAUUACGGCGC | -0.349 ± 0.17 | 0.649 ± 0.25
GAUGAGCAAUAUUACGGGAU | – | -2.36 ± 0.42
GAUGAGCAAUAUUACGGUCG | -2.37 ± 0.12 | -0.405 ± 0.12
GAUGAGCAAUAUUACGGUCU | -3.87 ± 0.37 | -3.34 ± 0.26
GAUGAGCAAUAUUACGUAGG | -3.76 ± 0.27 | -1.79 ± 0.26
GAUGAGCAAUAUUACGUCUC | -2.96 ± 0.23 | -1.5 ± 0.41
GAUGAGCAAUAUUACGUCUU | -1.41 ± 0.12 | -0.691 ± 0.12
GAUGAGCAAUAUUACGUGAU | -3.66 ± 0.28 | -2.3 ± 0.24
GAUUAGCAAUAUUACGAAAU | -2.4 ± 0.22 | 1.2 ± 0.2
GAUUAGCAAUAUUACGACCU | -0.343 ± 0.13 | -0.777 ± 0.18
GAUUAGCAAUAUUACGAGAG | -3.5 ± 0.25 | -1.83 ± 0.18
GAUUAGCAAUAUUACGAGGU | -3.27 ± 0.18 | -3.89 ± 0.33
GAUUAGCAAUAUUACGAUCA | -0.826 ± 0.21 | -0.493 ± 0.19
GAUUAGCAAUAUUACGCAAC | -3.22 ± 0.26 | -1.89 ± 0.19
GAUUAGCAAUAUUACGCAGC | -2.35 ± 0.31 | –
GAUUAGCAAUAUUACGCAUG | -0.728 ± 0.14 | -0.334 ± 0.17
